B1: VG9B198 (antibody, human IgG1, lambda, V domains shown)
VH: QVQLQESGPGLVKPSETLSLTCTVSGDSISSIYWSWIRQSAGKGLEWIGRIYTTDITNYNPSLKSRVTMSADTSKNQLSLKLTSVTAADTAVYYCAKNGYSYGGFNYWGQGTLVTVSS
VL: QSVLTQPPSVSGAPGQRVTISCTGSSSNIGAGYDVHWYQRLPGTAPKLLIYGDSYRPSGVPDRFSGSKSGTSASLAITGLQAEDEADYYCQSYDSSLSVVVFGGGTKLTVLG
B2: VG9B36 (antibody, human IgG1, kappa, V domains shown)
VH: QVQLVESGGGLVKPGGSLRLSCASSGFTFSSYGMYWVRQAPGKGLEWVSSISTGSSYIYYADSVKGRFTISRDNAKNSLYLQMNSLRAEDTAVYYCARDKGLAVTGYIMDVWGQGTTVTVSS
VL: EIVLTQSPSSLSASVGDRVTITCQASQDISNYLNWYQQKPGKAPKLLIYDASNLETGVPSRFSGSGSGTDFTFTISSLQPEDIAIYYCQQYDNLPMYTFGQGTKVEIKR
B3: VG9B402 (antibody, human IgG1, kappa)
heavy: not shown
light: DIQMTQSPSSVSASVGDRVTITCRASQGINSWLAWYQQKPGNAPKLLIYAASSLQSGVPSRFSGIGSGTDFIFTISSLQPEDFASYYCQQANSFPWTFGQGTKVDIKRTVAAPSVFIFPPSDEQLKSGTASVVCLLNNFYPREAKVQWKVDNALQSGNSQESVTEQDSKDSTYSLSSTLTLSKADYEKHKVYACEVTHQGLSSPVTKSFNRGEC
B4: VG9B137 (antibody, human IgG1, kappa, V domains shown)
VH: EVQLVESGGGLVKPGGSLRLSCAAFGITFSSYSMDWVRQAPGRGLEWVSSIGSSSSYIFYADSVKGRFTISRDNAKNSLYLQMNSLRAEDTAVYYCATSYSWNYGGAFDIWGQGTMVTVSS
VL: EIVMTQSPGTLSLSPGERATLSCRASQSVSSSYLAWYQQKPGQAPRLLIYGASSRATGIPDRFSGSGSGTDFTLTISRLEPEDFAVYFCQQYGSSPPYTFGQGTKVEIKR
B5: VG9B44 (antibody, human IgG1, kappa, V domains shown)
VH: QVQLQQSGPGLVKPSQTLSLTCAISGDSVSSNSAAWNWIRQSPSRGLEWLGRTYYRSKWYNDYPISVKSRISINPDTSKNQFSLQLNSVTPEDTAVYYCARESGSYYTDGFDIWGQGTMVTVSS
VL: DIQMTQSPSFLSASVGDRVTITCRASQGISSYLAWYQQKPGKAPKLLIYAASTLQSGVPSRFSGSGSGTEFTLTISSLQPEDFATYYCQEFNSYPYTFGQGTKLEIKR
B6: VG9B162 (antibody, human IgG1, lambda, V domains shown)
VH: QVQLVESGAEVTKPGASVKVSCKASGYTFTGDYMHWVRQAPGQGLEWMGWINPNSGYTNYAQKFQGRVTMTRDTSISTAYMELSRLRSDDTAVYYCAREGDAFDVWGQGTMVTVSS
VL: QLVLTQSSSASGSPGQSVTISCTGTSSDVGGYNYVSWYQQHPGKAPKLMIYEVSKRPSGVPDRFSGSKSGNTASLTVSGLQAEDEADYYCNSYAGSNNFEVFGGGTKLTVLG
B7: VG9B191 (antibody, human IgG1, lambda, V domains shown)
VH: EVQLVQSGGGLVKPGGSLRLSCAASGFTFSRYSMNWVRQAPGKGLEGVSSISSSSSYIYYADSVKGRFTISRDNAKNSLYLQMNSLRAEDTAVYYCARDGPTVNWDYYFDLWGRGTLVTVSS
VL: QSVLTQPPSVSAAPGQKVTISCSGSSSNIGNNYVSWYQQLPGTAPKLLIYDNNKRPSGIPDRFSGSKSGTSATLGITGLQTGDEADYYCGTWDSSLSTSVVFGGGTKLTVLG
B8: VG9B413 (antibody, human IgG1, kappa)
heavy: not shown
light: EIVMTQSPGTLSLSPGDRATLSCRASQSVASSYLAWYQQKPGQSPRLLIYGASSRATGIPDRFSGSGSGTDFTLTISRLEPEDFAVYYCQQYGSSPPYTFGQGTKVEIKRTVAAPSVFIFPPSDEQLKSGTASVVCLLNNFYPREAKVQWKVDNALQSGNSQESVTEQDSKDSTYSLSSTLTLSKADYEKHKVYACEVTHQGLSSPVTKSFNRGEC
B9: VG9B403 (antibody, human IgG1, kappa)
heavy: not shown
light: DIVMTQSPGTLSLSPGDRATLSCRASQSVASSYLAWYQQKPGQSPRLLIYGASSRATGIPDRFSGSGSGTDFTLTISRLEPEDFAVYYCQQYGSSPPYTFGQGTKVEIKRTVAAPSVFIFPPSDEQLKSGTASVVCLLNNFYPREAKVQWKVDNALQSGNSQESVTEQDSKDSTYSLSSTLTLSKADYEKHKVYACEVTHQGLSSPVTKSFNRGEC
B10: VG9B67 (antibody, human IgG1, kappa, V domains shown)
VH: EVQLVESGGGLVKPGGSLRLSCAASGFTFSSYTMNWVRQAPGKGLEWVSSISSSSSYIDYAESVKGRFTISRDNAKNSLYLQMNSLRAEDTAVYYCARDGDILATIRGSFDYWGQGTTVTVSS
VL: DIVMTQTPLSLPVTPGEPASISCRSSQSLLDSDAGNTYLDWYLQKPGQSPQLLIYTLSYRASGVPDRFSGSGSGTDFTLKISRVEAEDVAIYYCMQRIEFPITFGQGTKVEIKR
B11: VG9B127 (antibody, human IgG1, kappa, V domains shown)
VH: QVQLVESGGGLVKPGGSLRLSCTASGFTFGAYTMNWVRQAPGKGLEWVSSISSSSSYIDFAESVKGRFTISRDNAKNSLYLQMISLRAEDTAVYYCARDGDIVSTIRGSFDYWGQGALVTVSS
VL: EIVMTQSPLSLPVTPGEPASISCRSSQSLLDSDDGNTYLDWYLQKPGQSPQLLIYTLSYRASGVPDRFSGSGSGTDFTLKISRVEAEDVGIYYCMQRIEFPITFGQGTKVEIKR
B12: VG9B33 (antibody, human IgG1, kappa, V domains shown)
VH: EVQLVESGGGLVKPGGSLRLSCAASGFTFSSYNMNWVRQAPGKGLEWVSSISTSSSYIYYADSVKGRFTISRDNAKNSLYLQMNGLRAEDTAVYYCARDTSVTKYPDTFDIWGQGTMVTVSS
VL: DIVMTQSPSSLSASVGDRVTITCRASQDINNYLAWFQQKPGKVPNLLIYGASTLQSGVPSRFTGSGSGTDFTLTISSLQPEDVATYYCQKYNSAPFTFGPGTKVDIKR
B13: VG9B384 (antibody, human IgG1, lambda, V domains shown)
VH: QVQLQESGPALVKPTQTLTLTCTFSGFSLSSSGMCVSWIRQPPGKALEWLTLIDWFDDKYYSTSLKTRLTISKDTSKNQVVLTMTNMDPVDTATYYCARIRGTGAYYYGLDVWGQGTMVTVSS
VL: SYELMQPPSVSVSPGQTASITCSGNELGDKYASWYQQQPGQSPVLVIYQDNKRPSGIPERFSGSNSGNTATLTISGTQAMDEADYYCQAWDSSKVVFGGGTKLTVLG

Molecular target: T1, T cell receptor (TCR) Vγ9 (TRGV9) (human, UniProt Q99603 21-122)
T1 chain (looked up): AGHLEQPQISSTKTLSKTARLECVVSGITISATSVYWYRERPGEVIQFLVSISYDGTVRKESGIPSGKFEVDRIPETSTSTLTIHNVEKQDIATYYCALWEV
Experiment: cell-based or functional assay
Wherever CD25+ (Vg9+ cells), flow staining is given: test concentration or dose not given here.
Wherever CD71+ (Vg9+ cells), flow staining is given: test concentration or dose not given here.
Wherever Granzyme B, Luminex (supernatant) is given: unit not given here.
Wherever IL6, Luminex (supernatant) is given: unit not given here.
Wherever TNFα, Luminex (supernatant) is given: unit not given here.

For B1, the “CD25+ (Vg9+ cells), flow staining” value was 23%.

In the case of B1, the “CD71+ (Vg9+ cells), flow staining” value is reported as 91.2%.

For B1, the “Granzyme B, Luminex (supernatant)” value was 1100.

For B1, the “IFNγ, Luminex (supernatant)” value was 324.

With B1 the “IL6, Luminex (supernatant)” value was 199.

With B1 the “TNFα, Luminex (supernatant)” value was 66.

B1 was tested, and the “Vg9 T cell %, flow staining” value was 3.6%.

Molecular target: T2, T cell receptor (TCR) Vγ9 (TRGV9) (human, UniProt Q99603 21-122)
T2 chain (looked up): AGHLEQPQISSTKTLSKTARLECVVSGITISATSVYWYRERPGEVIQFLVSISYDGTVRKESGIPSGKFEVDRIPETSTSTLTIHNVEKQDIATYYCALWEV
Experiment: cell-based or functional assay

In order of falling “CD25+ (Vg9+ cells), flow staining” value:
1. B3  45.5%
2. B5  45.4%
3. B8  44.9%
4. B7  42.4%
5. B11  37.3%
6. B9  36.2%
7. B2  29.1%
8. B10  28.5%
9. B12  28%
10. B13  26.4%
11. B6  9.7%
12. B4  8.7%

In order of falling “CD71+ (Vg9+ cells), flow staining” value:
1. B3  99.1%
2. B5  98.8%
3. B8  98.8%
4. B9  97.5%
5. B11  96.5%
6. B12  95.2%
7. B7  93.6%
8. B13  89.9%
9. B2  89.4%
10. B10  87.4%
11. B4  77.3%
12. B6  70.3%

In order of falling “Granzyme B, Luminex (supernatant)” value:
1. B8  5800
2. B3  4500
3. B2  3890
4. B7  3370
5. B5  3030
6. B9  3020
7. B10  2550
8. B11  2450
9. B13  2300
10. B12  1990
11. B6  481
12. B4  36

In order of rising “IFNγ, Luminex (supernatant)” value:
1. B4  44
2. B6  57
3. B12  749
4. B10  972
5. B13  1100
6. B5  1150
7. B11  1170
8. B7  1380
9. B9  1390
10. B3  2370
11. B2  2580
12. B8  2830

In order of falling “IL6, Luminex (supernatant)” value:
1. B8  1960
2. B13  610
3. B2  607
4. B5  587
5. B3  433
6. B7  400
7. B10  365
8. B11  348
9. B12  240
10. B9  175
11. B6  54
12. B4  8

In order of falling “TNFα, Luminex (supernatant)” value:
1. B7  7320
2. B13  3740
3. B11  709
4. B3  376
5. B6  329
6. B8  229
7. B5  198
8. B2  188
9. B10  144
10. B9  102
11. B12  85
12. B4  30

In order of rising “Vg9 T cell %, flow staining” value:
1. B6  2.7%
2. B13  3.4%
3. B4  3.6%
4. B7  5.2%
5. B9  7.2%
6. B2  7.8%
7. B3  9.5%
8. B11  11.2%
9. B8  13.3%
10. B10  14%
11. B12  14%
12. B5  14.4%

From US20220125947A1 (published 2022)
